Measured values taken from patent publication US20250122274A1 (SCHOLAR ROCK, published 2025).
Blank lines part the entries; values can stand above or below the binder they belong to.

What was measured:
[1] = molecular target: T1, murine pro-myostatin (mouse, UniProt O08689 25-376, biotinylated (SPR)); assay: ELISA-type titration, absorbance 450 nm, panel Murine Pure Pro-GDF-8; protocol not described in the text
T1 construct: also called proGDF8 (mouse); mouse pro-myostatin

[2] = molecular target: T2, human pro-myostatin (human, UniProt O14793 24-375, biotinylated (SPR)); assay: SPR Biacore 8K, biotinylated antigen captured
T2 construct: Disulfide-linked homodimer; also called proGDF8 (human)

[3] = molecular target: cyno pro-myostatin (cynomolgus monkey); assay: ELISA-type titration, OD 450 nm, Cyno-Pro-GDF-8 Plate 2; protocol not described in the text
[4] = molecular target: cyno pro-myostatin (cynomolgus monkey); assay: ELISA-type titration, OD 450 nm, Cyno-Pro-GDF-8 Plate 1; protocol not described in the text
[5] = molecular target: T1, murine pro-myostatin; assay: ELISA-type titration, OD 450 nm, Mu-Pro-GDF-8 Plate 1; protocol not described in the text

B1: Ab104 (antibody, human IgG4 S228P, kappa, V domains shown)
VH: EVQLVESGGGLVQPGGSLRLSCAASGSAFSSYGMSWVRQAPGKGLELVASINSNGGSTYYPDSVKGRFTISRDNAKNSLYLQMNSLRAEDTAVYYCARDLLVKFLSWSHYYGMDVWGQGTTVTVSS
VL: DIVMTQSPLSLPVTPGEPASISCRSSQSLLHSSGHNFLHWYLQKPGQSPQLLIYEVSNRVSGVPDRFSGSGSGTDFTLKISRVEAEDVGVYYCMQQTQYPPTFGGGTKVEIKR
EC50 (read off the curve) [1]: ~700 pM

B2: Ab109 (antibody, human IgG4 S228P, kappa, V domains shown)
VH: EVQLVESGGGLVQPGGSLRLSCAASGFTFSSYGMSWVRQAPGKGLELVASFTGSGGTYYPDSVKGRFTISRDNAKNSLYLQMNSLRAEDTAVYYCARDLLIRFLEWSHYYGMDVWGQGTTVTVSS
VL: B1 VL
notes: also called Ab109 Human IgG4
koff [2]: ~0.000916 s⁻¹

B4: Ab110 (antibody, human IgG4 S228P, kappa, V domains shown)
VH: QVQLVQSGAEVKKPGASVKVSCKVSEYTFTNYDIHWVRQAPGKGLEWMGGISAYHGNAIYAQKFQGRVTMTEDTSTDTAYMELSSLKSEDTAVYYCARDRVRRDYYNFGMDVWGQGTTVTVSS
VL: DIQMTQSPSSVSASVGDRVTITCRASEDITSYLAWYQQKPGKAPKLLIYDVSSLQSGVPSRFSGSGSGTDFTLTISSLQPEDFANYYCLQHNAYPYGFGGGTKVEIKR
EC50 (read off the curve) [4]: 300 pM

Next, values leading:

EC50 (read off the curve) [3]: 500 pM
B3: Ab116 (antibody, human IgG4 S228P, kappa, V domains shown)
VH: QVQLVQSGAEVKKPGASVKVSCKVSGFTFSRPAIHWVRQAPGKGLEWMGGINPNAATTIYAQKFQGRVTMTEDTSTDTAYMELSSLKSEDTAVYYCARGRLLREWELRPYDTWGQGTLVTVSS
VL: DIQMTQSPSSVSASVGDRVTITCRASQSIGKSLAWYQQKPGKAPKLLIYSASNLRSGVPSRFSGSGSGTDFTLTISSLQPEDFANYYCQQYRDVPPITFGGGTKVEIKR

binding result [5]: binds
B5: Ab113 (antibody, human IgG4 S228P, kappa, V domains shown)
VH: QVQLVQSGAEVKKPGASVKVSCKVSGYLLTELSIHWVRQAPGKGLEWMGGIIPSFGTAIYAQKFQGRVTMTEDTSTDTAYMELSSLKSEDTAVYYCAISYSGFDLLPLDKWGQGTLVTVSS
VL: DIQMTQSPSSVSASVGDRVTITCRASQHISTWLAWYQQKPGKAPKLLIYYASSLQGGVPSRFSGSGSGTDFTLTISSLQPEDFANYYCLQTYTYPRTFGGGTKVEIKR
